# T1: EYFP-LacI-PSP1 (UniProt Q8R326 1-523)
# T1 sequence: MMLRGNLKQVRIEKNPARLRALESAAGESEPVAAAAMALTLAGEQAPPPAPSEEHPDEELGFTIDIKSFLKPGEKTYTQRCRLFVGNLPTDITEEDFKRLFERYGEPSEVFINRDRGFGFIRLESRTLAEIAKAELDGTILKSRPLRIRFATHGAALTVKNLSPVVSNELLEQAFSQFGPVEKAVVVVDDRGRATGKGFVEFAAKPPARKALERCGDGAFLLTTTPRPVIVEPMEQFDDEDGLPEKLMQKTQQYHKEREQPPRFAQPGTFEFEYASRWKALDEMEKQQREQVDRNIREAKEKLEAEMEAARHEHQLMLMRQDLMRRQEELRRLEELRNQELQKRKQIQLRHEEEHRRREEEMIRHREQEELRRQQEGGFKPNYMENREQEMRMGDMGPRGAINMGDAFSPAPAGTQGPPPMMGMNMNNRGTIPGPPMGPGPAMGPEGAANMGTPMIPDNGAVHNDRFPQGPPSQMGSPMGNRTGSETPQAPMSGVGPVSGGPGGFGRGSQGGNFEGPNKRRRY
# T2: EYFP-LacI-PSF (UniProt Q8VIJ6 1-699)
# T2 sequence: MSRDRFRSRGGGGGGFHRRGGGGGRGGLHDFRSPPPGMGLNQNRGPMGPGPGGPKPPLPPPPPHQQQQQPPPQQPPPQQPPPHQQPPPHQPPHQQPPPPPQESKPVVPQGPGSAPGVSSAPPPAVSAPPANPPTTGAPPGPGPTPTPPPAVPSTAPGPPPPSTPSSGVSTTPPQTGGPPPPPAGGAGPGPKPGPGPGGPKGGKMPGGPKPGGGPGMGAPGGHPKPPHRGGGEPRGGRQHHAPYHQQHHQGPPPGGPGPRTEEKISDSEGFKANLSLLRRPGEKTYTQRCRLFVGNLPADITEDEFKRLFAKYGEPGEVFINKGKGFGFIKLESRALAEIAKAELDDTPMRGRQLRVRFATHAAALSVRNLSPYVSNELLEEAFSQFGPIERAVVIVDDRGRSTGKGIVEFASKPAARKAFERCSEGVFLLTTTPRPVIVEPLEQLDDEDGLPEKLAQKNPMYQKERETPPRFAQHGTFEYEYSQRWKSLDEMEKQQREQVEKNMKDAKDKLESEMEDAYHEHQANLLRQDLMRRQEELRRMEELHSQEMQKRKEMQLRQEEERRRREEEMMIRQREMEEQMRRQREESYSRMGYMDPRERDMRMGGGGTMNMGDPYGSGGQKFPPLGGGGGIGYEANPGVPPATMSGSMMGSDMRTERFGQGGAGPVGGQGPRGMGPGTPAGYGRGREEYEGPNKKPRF
# B1: mCherry-p54nrb (natural protein)
# chain: MQSNKAFNLEKQNHTPRKHHQHHHQQHHQQQQQQQQQQPPPPIPANGQQASSQNEGLTIDLKNFRKPGEKTFTQRSRLFVGNLPPDITEEEMRKLFEKYGKAGEVFIHKDKGFGFIRLETRTLAEIAKVELDNMPLRGKQLRVRFACHSASLTVRNLPQYVSNELLEEAFSVFGQVERAVVIVDDRGRPSGKGIVEFSGKPAARKALDRCSEGSFLLTTFPRPVTVEPMDQLDDEEGLPEKLVIKNQQFHKEREQPPRFAQPGSFEYEYAMRWKALIEMEKQQQDQVDRNIKEAREKLEMEMEAARHEHQVMLMRQDLMRRQEELRRMEELHNQEVQKRKQLELRQEEERRRREEEMRRQQEEMMRRQQEGFKGTFPDAREQEIRMGQMAMGGAMGINNRGAMPPAPVPPGTPAPPGPATMMPDGTLGLTPPTTERFGQAATMEGIGAIGGTPPAFNRPAPGAEFAPNKRRRY
# B2: PSP2 (natural protein)
# chain: MKIFVGNVDGADTTPEELAALFAPYGTVMSCAVMKQFAFVHMRENAGAVRAIEALHGHELRPGRALVVEMSRPRPLNTWKIFVGNVSAACTSQELRSLFERRGRVIECDVVKDYAFVHMEKEADAKAAIAQLNGKEVKGKRINVELSTKGQKKGPALAIQSGDKTKKPGAGDTAFPGTGGFSATFDYQQAFGNSTGGFDGQARQPTPPFFGRDRSPLRRSPPRASYVAPLTAQPATYRAQPSVSLGAAYRAQPSASLGVGYRTQPMAAQAASYRAQPSVSLGAPYRGQLASPSSQSAAASSLGPYGGVQPSASALSTYGGQAAAASSLNSYGAQGSSLASYGNQPSSYGAQAASSYGVRAAASSYNTQGAASSLGSYGAQAASYGAQSAASSLAYGAQAASYSAQPSASYSAQSAPYAAQQAASYSSQPAAYVAQPATAAAYASQPAAYAAQATTPMAGSYGAQPVVQTQLNSYGAQASIGLSGSYGAQSAAAATGSYGAAAAYGAQPSATLAAPYRTQSSASLAASYAAQQHPQAAASYRGQPGSAYDGTGQPSAAYLSMSQGAVANANSTPPPYERTRLSPPRASYDDPYKKAVAMSKRYGSDRRLAELSDYRRLSESQLSFRRSPTKSSLDYRRLPDAHSDYARYSGSYNDYLRAAQMHSGYQRRM
# What was measured:
# [1] = biological target: T1, EYFP-LacI-PSP1; assay: LacO/LacI tethering in cells, recruitment seen by fluorescence microscopy
# [2] = biological target: T2, EYFP-LacI-PSF; assay: as above
Binder,percent of cells with recruitment to the tethered protein [1],percent of cells with recruitment to the tethered protein [2]
B1,87 % of the cells,
B2,,58 % of the cells

# Source: paper PMC3007124 (Nature cell biology, 2010)
